Assay results: the supplement of paper PMC9170038

Legend:
MS2 coat protein [1] = test: apparent KD of MS2 coat protein; designed switch direction (-1 OFF switch, 1 ON switch): 1; higher = weaker reporter binding; details: Eterna round: R98
Method: (§1)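 RNA-MaP: designed FMN/MS2 RNA switches (84 nt design region) are transcribed on-chip within common flanks and titrated with SNAP-549-labelled MS2 coat protein (about 1-3000 nM) in 100 mM Tris pH 7.5, 80 mM KCl, 4 mM MgCl2, without or with 200 uM FMN. Median apparent KD per design; activation ratio = KD,OFF / KD,ON.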

MS2 coat protein [2] = test: apparent KD of MS2 coat protein; designed switch direction (-1 OFF switch, 1 ON switch): -1; higher = weaker reporter binding; details: Eterna round: R98
Method: as §1

| Sequence | apparent KD of MS2 coat protein (MS2 coat protein [1]; input ligand: FMN 200 uM) | apparent KD of MS2 coat protein (MS2 coat protein [1]; input ligand: none) | apparent KD of MS2 coat protein (MS2 coat protein [2]; input ligand: FMN 200 uM) | apparent KD of MS2 coat protein (MS2 coat protein [2]; input ligand: none) |
| --- | --- | --- | --- | --- |
| AAAACAUGAGGAUCACCCAUGUAAAGAUCGGUUAAUAAAAGUGAGGAUAUACAAAAUUUUAUAUAGUAGAAGGCACUGGGUACA [JR_SSNG3_Sub002] | 29.7 nM | 28.3 nM |  |  |
| AAAACAUGAGGAUCACCCAUGUAAUGAUCGGUUAAUAGAAGUGAGGAUAUGCUUAAAAUAAGGUAGCAGAAGGCACUGGGUACA [JR_SSNG3_Sub041] | 31.3 nM | 28.1 nM |  |  |
| AAAAUAAAGGCAGGAUAUACAUGAAUAAAUAAAAUAAAAUAAAAUAAAACAUGAGGAUCACCCAUGUAGAAGGGCCAAAAUAAA [LRO021_Exclusion NG 2] |  |  | 178 nM | 71.5 nM |
| AAAAUAUAGGCAGGAUAUACAUGAAUAUAUAAUAUAAUAUAUAAUAUAACAUGAGGAUCACCCAUGUAGAAGGGCCAUAAUAAA [LRO028_Exclusion NG 2] |  |  | 72.7 nM | 43.7 nM |
| AAAUAAAAUAUAGGAUAUGGAAACAUGAGGAUCACCCAUGUAAAAUAAGAUAAAUAAUAAUAUAACCAGAAGGAUAAAAUAUAA [LRO003_SS NG 2] | 53.3 nM | 30 nM |  |  |
| AAGCAAACAUGAGGAUCACCCAUGUAACUGCUUUUGGCGACACAGGAUAUACAGCGACAUUGGCGGUAGAAGGGUGAUUGAAGU [Araisleen] | 51.1 nM | 22.2 nM |  |  |
| ACCGGCACUUACAUGAGGAUCACCCAUGUGUGCAAUCGGACACAGGAUAUCCAUGGUAAGUAUCGGGAGAAGGGUGGAAAGAAA [Reustion] | 258 nM | 142 nM |  |  |
| AGAACAUGAGGAUCACCCAUGUGAAGGUCGGCGUAUAAGGGUGAGGAUAUGCUUAAAAUAAGGAAGCAGAAGGUGCUUGGUGCG [SameState #79 NG3] | 102 nM | 137 nM |  |  |
| AUCAAUCACAUAGGAUAUAGAAUAUUAUAUUUUUACAUGAGGAUCACCCAUGUUUUAUUGGGAUUCUAGAAGGAUGAGUAAUAA [JR_SSNG2_Sub055Nu] | 96.9 nM | 147 nM |  |  |
| CAACAAUGGUGAGGAUAUGCAAAGGAUCACCUUGUAGAAGGCAUCAGGUAGAAGGUGCAGAGGAUCACCCUGUAAGGAUAUAUC [pwkr2 ssNG1 DX.21] | 69.9 nM | 176 nM |  |  |
| CAUGUCCACACAGGAUAUGCUGGACUUUGUCCAGCAGAAGGGUGAACAUGAGGAUCACCCAUGUAAAGGACAUGUAUAUUUAAU [Denovo 16] | 93.3 nM | 715 nM |  |  |
| CCUGACACUUGAGGAUAUGCUCAGGAAUACUGAGCAGAAGGCAGGGAAACCUGAGGAUCACCCAGGUAAGUCAGGAAUAAUAAA [Same State NG1 - A3C, U17G Submission 2A] | 21.9 nM | 62 nM |  |  |
| CGCUGUAAUGCAGGAUAUGCAUUGGAUUACAAUGCAGAAGGGCGAUUACAUGAGGAUCACCCAUGUAUAAACAGUGAAGAAGAG [Hyphema mod 5] | 26.9 nM | 51.6 nM |  |  |
| CGCUGUCGCGCAGGAUAUGCAUUGGAUUACAAUGCAGAAGGGCGAUUACAUGAGGAUCACCCAUGUGUAGACAGUGAAGAAGAG [SameState #31 NG1] | 28.4 nM | 253 nM |  |  |
| CUAAUAUAGUGAGGAUAUGCACAGGAUCACCGUGUAGAAGGCAUCAGGUAGAAGGUGCAGAGGAUCACCCUGUAAGGAUAUACA [pwkr2 ssNG1 DX.5] | 102 nM | 385 nM |  |  |
| CUAGCAUACCGAGGAUAUUCAUAUAAUAAAUAAACAUGAGGAUCACCCAUGUGGCGAAAGCCUAGGGAGAAGGCGGAAUGCUAU [salish99_SSNG2_r2_111] | 23.8 nM | 210 nM |  |  |
| CUCGUUGUCACAGGAUAUGCCGCCGGACAUGAGGAUCACCCAUGUACCCGCUUGAGAAAACUGCGGUAGAAGGGUGACUUAUAA [Erriisin] | 46 nM | 110 nM |  |  |
| GACGAAUUCUUAGGAUAUCGAGUGGAAUACACUCGAGAAGGAAGAUAUACCUGAGGAUCACCCAGGUAAAACUGGACGUCAAUA [Same State NG1 - A3C, U17G Submission 8D A68U] | 46.7 nM | 193 nM |  |  |
| GCCAUCGUAUGAGGAUAUGGCACCGUUUCGGUGCCAGAAGGCAUGUCUUUUGACAUGAGGAUCACCCAUGUAGUUAAGAUGGCA [Pyrimidine booster 4] | 147 nM | 637 nM |  |  |
